# Target: TbRIF5-BB2-HA (T. brucei)
# Assay: co-IP; cytoplasmic extracts of cells expressing TbDCL1-BB2-FLAG and TbRIF5-BB2-HA; immunoprecipitation with anti-FLAG or anti-HA antibody; Western blot for the common BB2 epitope
substance,measurement,value
TbDCL1-BB2-FLAG (enzyme),percent of TbDCL1 in the precipitate,50%

# Reference: PMC3359990
